Measurements from patent US20250002610A1 (Genmab, published 2025).

T1: cynomolgus DR4MfECD-FcHisCtag (cynomolgus monkey)
T1 construct: also called recombinant cynomolgus monkey DR4
T1 chain: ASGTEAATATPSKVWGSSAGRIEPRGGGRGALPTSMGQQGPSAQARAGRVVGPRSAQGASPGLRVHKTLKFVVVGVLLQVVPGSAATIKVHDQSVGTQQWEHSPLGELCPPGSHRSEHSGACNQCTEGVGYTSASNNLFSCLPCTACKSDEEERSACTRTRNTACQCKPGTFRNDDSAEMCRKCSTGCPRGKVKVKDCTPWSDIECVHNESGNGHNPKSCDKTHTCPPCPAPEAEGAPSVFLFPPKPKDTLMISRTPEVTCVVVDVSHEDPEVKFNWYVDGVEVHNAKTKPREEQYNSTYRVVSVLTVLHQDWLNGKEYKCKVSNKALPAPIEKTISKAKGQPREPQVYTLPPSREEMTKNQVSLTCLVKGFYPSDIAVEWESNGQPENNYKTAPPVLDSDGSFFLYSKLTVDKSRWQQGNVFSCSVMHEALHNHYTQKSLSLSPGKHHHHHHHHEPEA


How the values were obtained:
[1] = molecular target: T1, cynomolgus DR4MfECD-FcHisCtag; assay: BLI (Octet), antigen captured on anti-Penta-HIS sensors, average of three experiments
Procedure: Experiments were carried out while shaking at 1,000 RPM at 30° C. Amine Reactive 2nd Generation (AR2G) biosensors (Sartorius, Cat #18-5092) were activated by reaction with 20 mM EDC (N-(3-Dimethylaminopropyl)-N′-ethylcarbodiimide hydrochloride) (Sigma-Aldrich, Cat #03449) and 10 mM s-NHS (N-hydroxysulfosuccinimide sodium salt) (Sigma-Aldrich, Cat #56485) for 300 s. The activated AR2G sensors were loaded with 2.5 μg/mL His-tagged recombinant Human FAPα (Acro Biosystems, Cat #FAP-H5244-100ug) in 10 mM Sodium Acetate pH 5.0 (Sartorius, Cat #18-1069) or 2.5 μg/mL His-tagged recombinant Cynomolgus FAPα (Acro Biosystems, Cat #FAP-C52H3-100ug) in 10 mM Sodium Acetate pH 5.0 for 600 s and quenched with 1 M ethanolamine pH 8.5 (Sartorius Cat #18-1071) for 300 s. After a baseline measurement in Sample Diluent (1000 s; Sartorius, Cat #18-1104), the association (100 s) and dissociation (4,000 s) of functionally monovalent antibody was determined using a concentration range of 0.78-800 nM with two-fold dilution steps in Sample Diluent. The molecular mass of the antibodies used for the calculations was calculated from the sequences.
The binding affinity of BisG1-FAPα-FERL/DR4-FERR, BisG1-b12-FERL/DR4-FERR and control BisG1-FAPα-FERL/b12-FERR to recombinant human and cynomolgus monkey DR4 protein was determined using label-free biolayer interferometry on an Octet HTX instrument (Sartorius).
The protocol detailed in Example 5 was used with the following differences: anti-Penta-HIS biosensors (Sartorius, Cat #18-5120) were used; the sensors were preconditioned by exposure to 10 mM glycine (Sigma-Aldrich, Cat #15527) buffer pH 1.5 for 5 s, followed by neutralization in Sample Diluent (Sartorius, Cat #18-1104) for 5 s; both steps were repeated 2 times; the sensors were loaded with 50 nM human DR4HsECD-FcHisCtag (SEQ ID NO: 66), or cynomolgus DR4MfECD-FcHisCtag (SEQ ID NO: 67), for 600 s; the dissociation time was 1,000 s; The window of interest for the dissociation time was set at 100 s for the cynomolgus antigen and at 1,000 s for the human antigen.

[2] = molecular target: human DR4 with death domain deletion on ExpiCHO-S cells (human); assay: flow cytometry, ExpiCHO-S cells expressing human DR4, n = 3
Sequence of human DR4 with death domain deletion on ExpiCHO-S cells (human) (chain, as listed by the source limits assumed, stated change not applied): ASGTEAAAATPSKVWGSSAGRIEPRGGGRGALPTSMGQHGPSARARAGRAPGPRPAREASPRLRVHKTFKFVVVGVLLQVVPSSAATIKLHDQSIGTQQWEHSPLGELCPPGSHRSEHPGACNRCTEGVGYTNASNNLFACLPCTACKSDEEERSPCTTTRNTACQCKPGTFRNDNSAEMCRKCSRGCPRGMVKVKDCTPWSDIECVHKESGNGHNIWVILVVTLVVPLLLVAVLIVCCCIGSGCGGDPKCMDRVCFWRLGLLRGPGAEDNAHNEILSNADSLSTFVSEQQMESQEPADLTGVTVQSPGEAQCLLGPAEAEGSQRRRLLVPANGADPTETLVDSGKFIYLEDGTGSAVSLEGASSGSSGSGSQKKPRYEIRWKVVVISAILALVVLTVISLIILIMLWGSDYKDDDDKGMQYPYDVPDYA
Procedure: Binding of BisG1-FAPα-FERL/DR4-FERR, BisG1-DR4-FEAL/b12-FEAR and IgG1-DR4-FERR to DR4 of various species commonly used for nonclinical toxicology studies was assessed by flow cytometry using ExpiCHO-S cells transiently expressing DR4 from different animal species. In contrast to other species, rodents only express one DR which has highest homology with human DR5. Therefore, ExpiCHO-S cells transiently expressing rat and mouse DR protein were used instead. All DR constructs lack the intracellular DD to avoid apoptosis of transfected cells upon DR(4) activation. IgG1-b12 was used as negative control.

Row | Binder | Kd [1] | koff [1] | kon [1] | EC50 [2]
1 | BisG1-FAPα-FERL/DR4-FERR (bispecific antibody, human IgG1, kappa, lambda, Human IgG1 bispecific made by controlled Fab-arm exchange of IgG1-FAPα-FERL and IgG1-DR4-FERR; monovalent for FAPα and for DR4; also called GEN1057) heavy 1: EVQLLESGGGLVQPGGSPRLSCEASGFTFSSYALSWVRQAPGKGLEWVSAISGSGGGRYYADSVKGRFTISRDNSKNTLFLQMNSLRAEDTAVYYCAKEGYSSSGTYWDHWGQGTLVTVSSASTKGPSVFPLAPSSKSTSGGTAALGCLVKDYFPEPVTVSWNSGALTSGVHTFPAVLQSSGLYSLSSVVTVPSSSLGTQTYICNVNHKPSNTKVDKRVEPKSCDKTHTCPPCPAPEFERGPSVFLFPPKPKDTLMISRTPEVTCVVVDVSHEDPEVKFNWYVDGVEVHNAKTKPREEQYNSTYRVVSVLTVLHQDWLNGKEYKCKVSNKALPAPIEKTISKAKGQPREPQVYTLPPSREEMTKNQVSLTCLVKGFYPSDIAVEWESNGQPENNYKTTPPVLDSDGSFLLYSKLTVDKSRWQQGNVFSCSVMHEALHNHYTQKSLSLSPG light 1: AIQMTQSPSSVSASVGDRVTITCRASQGVSSWLAWYQQKPGRAPKLLIYVASTLQSGVPSRFSGSGSGTDFTLTINSLQPEDFATYYCQQANSFPPTFGQGTRLEMKRTVAAPSVFIFPPSDEQLKSGTASVVCLLNNFYPREAKVQWKVDNALQSGNSQESVTEQDSKDSTYSLSSTLTLSKADYEKHKVYACEVTHQGLSSPVTKSFNRGEC heavy 2: QVQLQESGPGLVKPSGTLSLTCAVSGGSISSYSWWSWIRQPPGKGLEWIGELYHSGSTNYNPSLKSRVTISVDKSKNQFSLKLRSVTAADTAVYYCVRGVATIDYWGQGTLVTVSSASTKGPSVFPLAPSSKSTSGGTAALGCLVKDYFPEPVTVSWNSGALTSGVHTFPAVLQSSGLYSLSSVVTVPSSSLGTQTYICNVNHKPSNTKVDKRVEPKSCDKTHTCPPCPAPEFERGPSVFLFPPKPKDTLMISRTPEVTCVVVDVSHEDPEVKFNWYVDGVEVHNAKTKPREEQYNSTYRVVSVLTVLHQDWLNGKEYKCKVSNKALPAPIEKTISKAKGQPREPQVYTLPPSREEMTKNQVSLTCLVKGFYPSDIAVEWESNGQPENNYKTTPPVLDSDGSFFLYSRLTVDKSRWQQGNVFSCSVMHEALHNHYTQKSLSLSPG light 2: QSALTQPPSASGSPGQSVTISCTGTSSDVGGYNFVSWYQQDPGKAPKLLIYEVTKRPSGVPDRFSGSKSGNTASLTVSGLQAEDEADYYCSSYAGSNNVMFGGGTKLTVLGQPKAAPSVTLFPPSSEELQANKATLVCLISDFYPGAVTVAWKADSSPVKAGVETTTPSKQSNNKYAASSYLSLTPEQWKSHRSYSCQVTHEGSTVEKTVAPTECS | 290 nM | 0.008 s⁻¹ | 28000 M⁻¹ s⁻¹ | 0.11 µg/mL
2 | IgG1-DR4-FERR (antibody, V domains shown, Bivalent monoclonal IgG1 lambda) VH: QVQLQESGPGLVKPSGTLSLTCAVSGGSISSYSWWSWIRQPPGKGLEWIGELYHSGSTNYNPSLKSRVTISVDKSKNQFSLKLRSVTAADTAVYYCVRGVATIDYWGQGTLVTVSS VL: QSALTQPPSASGSPGQSVTISCTGTSSDVGGYNFVSWYQQDPGKAPKLLIYEVTKRPSGVPDRFSGSKSGNTASLTVSGLQAEDEADYYCSSYAGSNNVMFGGGTKLTVLG |  |  |  | 0.04 µg/mL
3 | BisG1-b12-FERL/DR4-FERR (bispecific antibody, human IgG1, kappa, lambda, Fab-arm exchange of IgG1-b12-FERL and IgG1-DR4-FERR; also called bsIgG1-ctrl-FERLxDR4-FERR) heavy 1: QVQLVQSGAEVKKPGASVKVSCQASGYRFSNFVIHWVRQAPGQRFEWMGWINPYNGNKEFSAKFQDRVTFTADTSANTAYMELRSLRSADTAVYYCARVGPYSWDDSPQDNYYMDVWGKGTTVIVSSASTKGPSVFPLAPSSKSTSGGTAALGCLVKDYFPEPVTVSWNSGALTSGVHTFPAVLQSSGLYSLSSVVTVPSSSLGTQTYICNVNHKPSNTKVDKRVEPKSCDKTHTCPPCPAPEFERGPSVFLFPPKPKDTLMISRTPEVTCVVVDVSHEDPEVKFNWYVDGVEVHNAKTKPREEQYNSTYRVVSVLTVLHQDWLNGKEYKCKVSNKALPAPIEKTISKAKGQPREPQVYTLPPSREEMTKNQVSLTCLVKGFYPSDIAVEWESNGQPENNYKTTPPVLDSDGSFLLYSKLTVDKSRWQQGNVFSCSVMHEALHNHYTQKSLSLSPG light 1: EIVLTQSPGTLSLSPGERATFSCRSSHSIRSRRVAWYQHKPGQAPRLVIHGVSNRASGISDRFSGSGSGTDFTLTITRVEPEDFALYYCQVYGASSYTFGQGTKLERKRTVAAPSVFIFPPSDEQLKSGTASVVCLLNNFYPREAKVQWKVDNALQSGNSQESVTEQDSKDSTYSLSSTLTLSKADYEKHKVYACEVTHQGLSSPVTKSFNRGEC heavy 2: QVQLQESGPGLVKPSGTLSLTCAVSGGSISSYSWWSWIRQPPGKGLEWIGELYHSGSTNYNPSLKSRVTISVDKSKNQFSLKLRSVTAADTAVYYCVRGVATIDYWGQGTLVTVSSASTKGPSVFPLAPSSKSTSGGTAALGCLVKDYFPEPVTVSWNSGALTSGVHTFPAVLQSSGLYSLSSVVTVPSSSLGTQTYICNVNHKPSNTKVDKRVEPKSCDKTHTCPPCPAPEFERGPSVFLFPPKPKDTLMISRTPEVTCVVVDVSHEDPEVKFNWYVDGVEVHNAKTKPREEQYNSTYRVVSVLTVLHQDWLNGKEYKCKVSNKALPAPIEKTISKAKGQPREPQVYTLPPSREEMTKNQVSLTCLVKGFYPSDIAVEWESNGQPENNYKTTPPVLDSDGSFFLYSRLTVDKSRWQQGNVFSCSVMHEALHNHYTQKSLSLSPG light 2: QSALTQPPSASGSPGQSVTISCTGTSSDVGGYNFVSWYQQDPGKAPKLLIYEVTKRPSGVPDRFSGSKSGNTASLTVSGLQAEDEADYYCSSYAGSNNVMFGGGTKLTVLGQPKAAPSVTLFPPSSEELQANKATLVCLISDFYPGAVTVAWKADSSPVKAGVETTTPSKQSNNKYAASSYLSLTPEQWKSHRSYSCQVTHEGSTVEKTVAPTECS | 260 nM | 0.0082 s⁻¹ | 31000 M⁻¹ s⁻¹ | 
